Source: patent US20220064329A1 (Novo Nordisk, published 2022)

T1: recombinant human activated Factor VII (FVIIa) (human, UniProt P08709 61-212; P08709 213-466, ten glutamate residues of the Gla domain may be gamma-carboxylated)
T1 construct: chains tethered by a disulfide bond; also called Factor VIIa; rFVIIa
T1 sequence 1: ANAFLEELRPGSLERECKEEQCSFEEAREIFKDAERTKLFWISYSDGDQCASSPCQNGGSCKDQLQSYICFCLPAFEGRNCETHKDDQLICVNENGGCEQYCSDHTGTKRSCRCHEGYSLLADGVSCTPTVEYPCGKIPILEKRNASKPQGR
T1 sequence 2: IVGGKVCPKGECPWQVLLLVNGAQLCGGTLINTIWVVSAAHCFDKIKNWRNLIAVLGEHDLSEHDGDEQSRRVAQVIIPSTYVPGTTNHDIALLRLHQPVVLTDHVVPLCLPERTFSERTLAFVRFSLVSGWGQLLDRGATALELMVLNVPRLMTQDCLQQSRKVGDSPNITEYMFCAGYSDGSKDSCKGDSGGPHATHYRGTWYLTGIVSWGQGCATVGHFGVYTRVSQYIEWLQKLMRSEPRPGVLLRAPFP


Target: T1, recombinant human activated Factor VII …
Test: BLI (Fortebio)

Binder	Kd [nM]
VH SEQ ID NO 586 / VL SEQ ID NO 382 (antibody, IgG4, V domains shown, humanized 11F2; IgG4 S228P/kappa) VH: QVQLQESGPGLVKPSDTLSLTCAVSGYSISSDSAWSWIRQPPGKGLEWIGYIQYSGSTNYNPSLKSRVTMSVDTSKNQFSLKLSSVTALDTAVYYCARSVNYYGNSFAVGYWGQGTLVTVSS VL: EIVLTQSPATLSLSPGERATLSCRASQGLSDYLHWYQQKPGEAPRLLIKYASQPATGIPARFSGSGSGTDFTLTISSLEPEDFAVYYCQNGHSFPLTFGQGTKLEIK	17
VH SEQ ID NO 594 / VL SEQ ID NO 334 (antibody, IgG4, V domains shown, humanized 11F2; IgG4 S228P/kappa) VH: QVQLQESGPGLVKPSDTLSLTCAVSGYSISSDSAWSWIRQPPGKKLEWIGYIQYSGSTNYNPSLKSRVTMSVDTSKNQFSLKLSSVTALDTAVYYCARSVNYYGNSFAVGPWGQGTLVTVSS VL: EIVLTQSPATLSLSPGERATLSCRASQGISDYLHWYQQKPGQAPRLLIKYASQPATGIPARFSGSGSGTDFTLTISSLEPEDFAVYYCQNGHSFPLTFGQGTKLEIK	32
VH SEQ ID NO 586 / VL SEQ ID NO 478 (antibody, IgG4, V domains shown, humanized 11F2; IgG4 S228P/kappa) VH: QVQLQESGPGLVKPSDTLSLTCAVSGYSISSDSAWSWIRQPPGKGLEWIGYIQYSGSTNYNPSLKSRVTMSVDTSKNQFSLKLSSVTALDTAVYYCARSVNYYGNSFAVGYWGQGTLVTVSS VL: EIVLTQSPATLSLSPGERATLSCRASQGVSDYLHWYQQKPGQAPRLLIKYASQPATGIPARFSGSGSGTDFTLTISSLEPEDFAVYYCQQGHSFPLTFGQGTKLEIK	27
VH SEQ ID NO 586 / VL SEQ ID NO 430 (antibody, IgG4, V domains shown, humanized 11F2; IgG4 S228P/kappa) VH: QVQLQESGPGLVKPSDTLSLTCAVSGYSISSDSAWSWIRQPPGKGLEWIGYIQYSGSTNYNPSLKSRVTMSVDTSKNQFSLKLSSVTALDTAVYYCARSVNYYGNSFAVGYWGQGTLVTVSS VL: EIVLTQSPATLSLSPGERATLSCRASQGVSDYLAWYQQKPGQAPRLLIKYASQPATGIPARFSGSGSGTDFTLTISSLEPEDFGVYYCQNGHSFPLTFGQGTKLEIK	13
VH SEQ ID NO 586 / VL SEQ ID NO 438 (antibody, IgG4, V domains shown, humanized 11F2; IgG4 S228P/kappa) VH: QVQLQESGPGLVKPSDTLSLTCAVSGYSISSDSAWSWIRQPPGKGLEWIGYIQYSGSTNYNPSLKSRVTMSVDTSKNQFSLKLSSVTALDTAVYYCARSVNYYGNSFAVGYWGQGTLVTVSS VL: EIVLTQSPATLSLSPGERATLSCRASQGVSDYLAWYQQKPGQAPRLLIKYASQPATGIPARFSGSGSGTDFTLTISSLEPEDVAVYYCQNGHSFPLTFGQGTKLEIK	23
VH SEQ ID NO 586 / VL SEQ ID NO 414 (antibody, IgG4, V domains shown, humanized 11F2; IgG4 S228P/kappa) VH: QVQLQESGPGLVKPSDTLSLTCAVSGYSISSDSAWSWIRQPPGKGLEWIGYIQYSGSTNYNPSLKSRVTMSVDTSKNQFSLKLSSVTALDTAVYYCARSVNYYGNSFAVGYWGQGTLVTVSS VL: EIVLTQSPATLSLSPGERATLSCRASQGVSDYLAWYQQKPGQAPRLLIKYASQPATGIPARFSGSGSGTDFTLTISSLEPEDFAVYYCQNGHSFPLTFGQGTKLEIK	25
VH SEQ ID NO 586 / VL SEQ ID NO 486 (antibody, IgG4, V domains shown, humanized 11F2; IgG4 S228P/kappa) VH: QVQLQESGPGLVKPSDTLSLTCAVSGYSISSDSAWSWIRQPPGKGLEWIGYIQYSGSTNYNPSLKSRVTMSVDTSKNQFSLKLSSVTALDTAVYYCARSVNYYGNSFAVGYWGQGTLVTVSS VL: EIVLTQSPATLSLSPGERATLSCRASQGVSDYLHWYQQKPGQAPRLLIKYASQPATGIPARFSGSGSGTDFTLTISSLEPEDFGVYYCQNGHSFPLTFGQGTKLEIK	18
VH SEQ ID NO 586 / VL SEQ ID NO 406 (antibody, IgG4, V domains shown, humanized 11F2; IgG4 S228P/kappa) VH: QVQLQESGPGLVKPSDTLSLTCAVSGYSISSDSAWSWIRQPPGKGLEWIGYIQYSGSTNYNPSLKSRVTMSVDTSKNQFSLKLSSVTALDTAVYYCARSVNYYGNSFAVGYWGQGTLVTVSS VL: EIVLTQSPATLSLSPGERATLSCRASQGVSDYLAWYQQKPGQAPRLLIKYASQPATGIPARFSGSGSGTDFTLTISSLEPEDFAVYYCQNGHSFPLTFGAGTKLEIK	19
VH SEQ ID NO 594 / VL SEQ ID NO 318 (antibody, IgG4, V domains shown, humanized 11F2; IgG4 S228P/kappa) VH: QVQLQESGPGLVKPSDTLSLTCAVSGYSISSDSAWSWIRQPPGKKLEWIGYIQYSGSTNYNPSLKSRVTMSVDTSKNQFSLKLSSVTALDTAVYYCARSVNYYGNSFAVGPWGQGTLVTVSS VL: EIVLTQSPATLSLSPGERATLSCRASQGISDYLHWYQQKPGEAPRLLIKYTSQPATGIPARFSGSGSGTDFTLTISSLEPEDFAVYYCQNGHSFPLTFGQGTKLEIK	23
VH SEQ ID NO 586 / VL SEQ ID NO 462 (antibody, IgG4, V domains shown, humanized 11F2; IgG4 S228P/kappa) VH: QVQLQESGPGLVKPSDTLSLTCAVSGYSISSDSAWSWIRQPPGKGLEWIGYIQYSGSTNYNPSLKSRVTMSVDTSKNQFSLKLSSVTALDTAVYYCARSVNYYGNSFAVGYWGQGTLVTVSS VL: EIVLTQSPATLSLSPGERATLSCRASQGVSDYLHWYQQKPGQAPRLLIKYASQPATGIPARFSGSGSGTDFTLTISSLEPEDFAVYYCQNGHSFPLTFGAGTKLEIK	18
VH SEQ ID NO 594 / VL SEQ ID NO 358 (antibody, IgG4, V domains shown, humanized 11F2; IgG4 S228P/kappa) VH: QVQLQESGPGLVKPSDTLSLTCAVSGYSISSDSAWSWIRQPPGKKLEWIGYIQYSGSTNYNPSLKSRVTMSVDTSKNQFSLKLSSVTALDTAVYYCARSVNYYGNSFAVGPWGQGTLVTVSS VL: EIVLTQSPATLSLSPGERATLSCRASQGISDYLHWYQQKPGQAPRLLIKYTSQPATGIPARFSGSGSGTDFTLTISSLEPEDFAVYYCQNGHSFPLTFGQGTKLEIK	24

Continued, values first:

Kd [nM]	Binder
16	VH SEQ ID NO 586 / VL SEQ ID NO 454 (antibody, IgG4, V domains shown, humanized 11F2; IgG4 S228P/kappa) VH: QVQLQESGPGLVKPSDTLSLTCAVSGYSISSDSAWSWIRQPPGKGLEWIGYIQYSGSTNYNPSLKSRVTMSVDTSKNQFSLKLSSVTALDTAVYYCARSVNYYGNSFAVGYWGQGTLVTVSS VL: EIVLTQSPATLSLSPGERATLSCRASQGVSDYLHWYQQKPGEAPRLLIKYASQPATGIPARFSGSGSGTDFTLTISSLEPEDFAVYYCQNGHSFPLTFGQGTKLEIK
15	VH SEQ ID NO 586 / VL SEQ ID NO 470 (antibody, IgG4, V domains shown, humanized 11F2; IgG4 S228P/kappa) VH: QVQLQESGPGLVKPSDTLSLTCAVSGYSISSDSAWSWIRQPPGKGLEWIGYIQYSGSTNYNPSLKSRVTMSVDTSKNQFSLKLSSVTALDTAVYYCARSVNYYGNSFAVGYWGQGTLVTVSS VL: EIVLTQSPATLSLSPGERATLSCRASQGVSDYLHWYQQKPGQAPRLLIKYASQPATGIPARFSGSGSGTDFTLTISSLEPEDFAVYYCQNGHSFPLTFGQGTKLEIK
120	VH SEQ ID NO 594 / VL SEQ ID NO 342 (antibody, IgG4, V domains shown, humanized 11F2; IgG4 S228P/kappa) VH: QVQLQESGPGLVKPSDTLSLTCAVSGYSISSDSAWSWIRQPPGKKLEWIGYIQYSGSTNYNPSLKSRVTMSVDTSKNQFSLKLSSVTALDTAVYYCARSVNYYGNSFAVGPWGQGTLVTVSS VL: EIVLTQSPATLSLSPGERATLSCRASQGISDYLHWYQQKPGQAPRLLIKYTSQPATGIPARFSGSGSGRDFTLTISSLEPEDFAVYYCQNGHSFPLTFGAGTKLELK
34	VH SEQ ID NO 594 / VL SEQ ID NO 350 (antibody, IgG4, V domains shown, humanized 11F2; IgG4 S228P/kappa) VH: QVQLQESGPGLVKPSDTLSLTCAVSGYSISSDSAWSWIRQPPGKKLEWIGYIQYSGSTNYNPSLKSRVTMSVDTSKNQFSLKLSSVTALDTAVYYCARSVNYYGNSFAVGPWGQGTLVTVSS VL: EIVLTQSPATLSLSPGERATLSCRASQGISDYLHWYQQKPGQAPRLLIKYTSQPATGIPARFSGSGSGTDFTLTISSLEPEDFAVYYCQNGHSFPLTFGAGTKLELK
22	VH SEQ ID NO 594 / VL SEQ ID NO 326 (antibody, IgG4, V domains shown, humanized 11F2; IgG4 S228P/kappa) VH: QVQLQESGPGLVKPSDTLSLTCAVSGYSISSDSAWSWIRQPPGKKLEWIGYIQYSGSTNYNPSLKSRVTMSVDTSKNQFSLKLSSVTALDTAVYYCARSVNYYGNSFAVGPWGQGTLVTVSS VL: EIVLTQSPATLSLSPGERATLSCRASQGISDYLHWYQQKPGEAPRLLIKYTSQPATGIPARFSGSGSGTDFTLTISSLEPEDFGVYYCQNGHSFPLTFGAGTKLELK
17	VH SEQ ID NO 586 / VL SEQ ID NO 494 (antibody, IgG4, V domains shown, humanized 11F2; IgG4 S228P/kappa) VH: QVQLQESGPGLVKPSDTLSLTCAVSGYSISSDSAWSWIRQPPGKGLEWIGYIQYSGSTNYNPSLKSRVTMSVDTSKNQFSLKLSSVTALDTAVYYCARSVNYYGNSFAVGYWGQGTLVTVSS VL: EIVLTQSPATLSLSPGERATLSCRASQGVSDYLHWYQQKPGQAPRLLIKYASQPATGIPARFSGSGSGTDFTLTISSLEPEDVAVYYCQNGHSFPLTFGQGTKLEIK
140	VH SEQ ID NO 594 / VL SEQ ID NO 382 (antibody, IgG4, V domains shown, humanized 11F2; IgG4 S228P/kappa) VH: QVQLQESGPGLVKPSDTLSLTCAVSGYSISSDSAWSWIRQPPGKKLEWIGYIQYSGSTNYNPSLKSRVTMSVDTSKNQFSLKLSSVTALDTAVYYCARSVNYYGNSFAVGPWGQGTLVTVSS VL: EIVLTQSPATLSLSPGERATLSCRASQGLSDYLHWYQQKPGEAPRLLIKYASQPATGIPARFSGSGSGTDFTLTISSLEPEDFAVYYCQNGHSFPLTFGQGTKLEIK
15	VH SEQ ID NO 586 / VL SEQ ID NO 502 (antibody, IgG4, V domains shown, humanized 11F2; IgG4 S228P/kappa) VH: QVQLQESGPGLVKPSDTLSLTCAVSGYSISSDSAWSWIRQPPGKGLEWIGYIQYSGSTNYNPSLKSRVTMSVDTSKNQFSLKLSSVTALDTAVYYCARSVNYYGNSFAVGYWGQGTLVTVSS VL: EIVLTQSPATLSLSPGERATLSCRASQGVSDYLHWYQQKPGQAPRLLIKYTSQPATGIPARFSGSGSGTDFTLTISSLEPEDFAVYYCQNGHSFPLTFGQGTKLEIK
38	VH SEQ ID NO 586 / VL SEQ ID NO 390 (antibody, IgG4, V domains shown, humanized 11F2; IgG4 S228P/kappa) VH: QVQLQESGPGLVKPSDTLSLTCAVSGYSISSDSAWSWIRQPPGKGLEWIGYIQYSGSTNYNPSLKSRVTMSVDTSKNQFSLKLSSVTALDTAVYYCARSVNYYGNSFAVGYWGQGTLVTVSS VL: EIVLTQSPATLSLSPGERATLSCRASQGVSDYLAWYQQKPGEAPRLLIKYASQPATGIPARFSGSGSGTDFTLTISSLEPEDFAVYYCQNGHSFPLTFGQGTKLEIK
